From article PMC6376876

Test system: CC(=O)Oc1ccc([N+](=O)[O-])cc1
Assay: purified protein

Substance LsALDH16 (Loktanella sp. 3ANDIMAR09) has a Km of 1740 µM, a Vmax of 7.9 µmol/min/mg and a kcat of 10.6 ± 1.6 s⁻¹. It also gave a kcat/Km of 6000 ± 2000 M⁻¹ s⁻¹.
